# From patent US20190060431A1 (IMMATICS BIOTECHNOLOGIES, published 2019)
# Where no end group is shown, it is not given here. [ ]: non-standard residue; d: D form. pT = C[C@@H](OP(=O)(O)O)[C@H](N)C(=O)O
# Target: T1, HLA-A*02:01 (human)
# T1 construct: MHC class I monomer in the UV-ligand exchange assay, captured on streptavidin plates; also called peptide-receptive MHC molecules
# Test: UV-ligand exchange, anti-β2m ELISA; grade of peptide exchange yield (legend: ≥75% = ++++)
# Description: (§1) Candidate peptides for T cell based therapies according to the present invention were further tested for their MHC binding capacity (affinity). The individual peptide-MHC complexes were produced by UV-ligand exchange, where a UV-sensitive peptide is cleaved upon UV-irradiation, and exchanged with the peptide of interest as analyzed. Only peptide candidates that can effectively bind and stabilize the peptide-receptive MHC molecules prevent dissociation of the MHC complexes. To determine the yield of the exchange reaction, an ELISA was performed based on the detection of the light chain (β2m) of stabilized MHC complexes. The assay was performed as generally described in Rodenko et al. (Rodenko et al., 2006).
# (§2) 96 well MAXISorp plates (NUNC) were coated over night with 2 ug/ml streptavidin in PBS at room temperature, washed 4× and blocked for 1 h at 37° C. in 2% BSA containing blocking buffer. Refolded HLA-A*02:01/MLA-001 monomers served as standards, cov-ering the range of 15-500 ng/ml. Peptide-MHC monomers of the UV-exchange reaction were diluted 100-fold in blocking buffer. Samples were incubated for 1 h at 37° C., washed four times, incubated with 2 ug/ml HRP conjugated anti-β2m for 1 h at 37° C., washed again and detected with TMB solution that is stopped with NH2SO4. Absorp-tion was measured at 450 nm. Candidate peptides that show a high exchange yield (preferably higher than 50%, most preferred higher than 75%) are generally preferred for a generation and production of antibodies or fragments thereof, and/or T cell receptors or fragments thereof, as they show sufficient avidity to the MHC molecules and prevent dissociation of the MHC complexes.
row,Binder,peptide exchange yield [%]
1,"GLLGFQAEA [GLLGFQAEA (SEQ ID NO: 24, MAGED1)]",≥ 75
2,"KLLDMELEM [KLLDMELEM (SEQ ID NO: 39, FAH)]",≥ 75
3,"FLVEHVLTL [FLVEHVLTL (SEQ ID NO: 42, SLC39A6)]",≥ 75
4,"FIIPTVATA [FIIPTVATA (SEQ ID NO: 7, ABCC11)]",≥ 75
5,"GLVQSLTSI [GLVQSLTSI (SEQ ID NO: 8, ABCC11)]",≥ 75

# Next, values leading:
row,peptide exchange yield [%],Binder
1,≥ 75,"LLM[pT]VAGLKL [LLMUVAGLKL (SEQ ID NO: 38, PCNXL3)]"
2,≥ 75,"SLFSVPFFL [SLFSVPFFL (SEQ ID NO: 28, TM9SF1)]"
3,≥ 75,"SMMGLLTNL [SMMGLLTNL (SEQ ID NO: 16, ESR1)]"
4,≥ 75,"SLLSEIQAL [SLLSEIQAL (SEQ ID NO: 35, AKAP9, PCNT)]"
5,≥ 75,"TLLGLAVNV [TLLGLAVNV (SEQ ID NO: 36, CHPT1)]"

# Target: T1, HLA-A*02:01
# Test: UV-ligand exchange, anti-β2m ELISA; grade of peptide exchange yield (legend: ≥50 = +++)
# Description: as §1, §2
row,Binder,peptide exchange yield [%]
1,"FLDEEVKLI [FLDEEVKLI (SEQ ID NO: 43, FTL)]",50 to 75
2,"FSFPVSVGV [FSFPVSVGV (SEQ ID NO: 20, DUSP4)]",50 to 75
3,"GLVATLQSL [GLVATLQSL (SEQ ID NO: 32, IFI6)]",50 to 75
4,"ALEA[pT]QLYL [ALEAUQLYL (SEQ ID NO: 29, DEPDC4)]",50 to 75
5,"KQLELELEV [KQLELELEV (SEQ ID NO: 14, MUC6)]",50 to 75
6,"ALAGSSPQV [ALAGSSPQV (SEQ ID NO: 2, CNTD2)]",50 to 75
7,"GLHSLPPEV [GLHSLPPEV (SEQ ID NO: 10, LRRC8E)]",50 to 75
8,"FMSKLVPAI [FMSKLVPAI (SEQ ID NO: 9, TPRG1)]",50 to 75
9,"KMPEHISTV [KMPEHISTV (SEQ ID NO: 1, CILP)]",50 to 75
10,"ALTALQNYL [ALTALQNYL (SEQ ID NO: 6, TFAP2B)]",50 to 75

# The next lines start with the values.
row,peptide exchange yield [%],Binder
1,50 to 75,"SLNDQGYLL [SLNDQGYLL (SEQ ID NO: 41, MCM8)]"
2,50 to 75,"SLAWDVPAA [SLAWDVPAA (SEQ ID NO: 26, FASN)]"
3,50 to 75,"SLFPSLVVV [SLFPSLVVV (SEQ ID NO: 15, PLEC)]"
4,50 to 75,"SLAEPRVSV [SLAEPRVSV (SEQ ID NO: 27, FASN)]"
5,50 to 75,"SLLTEPALV [SLLTEPALV (SEQ ID NO: 21, TBC1D9)]"
6,50 to 75,"YIDGLESRV [YIDGLESRV (SEQ ID NO: 22, CREB3L4)]"
7,50 to 75,"YILLQSPQL [YILLQSPQL (SEQ ID NO: 18, MUC6)]"
8,50 to 75,"SLADAVEKV [SLADAVEKV (SEQ ID NO: 23, CCDC122)]"

# Target: T1, HLA-A*02:01
# Test: UV-ligand exchange, anti-β2m ELISA; grade of peptide exchange yield (legend: ≥20% = ++)
# Description: as §1, §2
row,Binder,peptide exchange yield [%]
1,"GLSYIYNTV [GLSYIYNTV (SEQ ID NO: 31, COG6)]",20 to 50
2,"KLYEGIPVL [KLYEGIPVL (SEQ ID NO: 13, NEK10)]",20 to 50
3,"ALEEQLHQV [ALEEQLHQV (SEQ ID NO: 19, KRT25, KRT28, KRT27)]",20 to 50
4,"GLLPTSVSPRV [GLLPTSVSPRV (SEQ ID NO: 11, SCUBE2)]",20 to 50
5,"ALNPVIYTV [ALNPVIYTV (SEQ ID NO: 5, DRD4)]",20 to 50
6,"ILTELPPGV [ILTELPPGV (SEQ ID NO: 33, ZNF407)]",20 to 50
7,"ILFDVVVFL [ILFDVVVFL (SEQ ID NO: 25, C4orf3)]",20 to 50
8,"KAFPFYNTV [KAFPFYNTV (SEQ ID NO: 12, NAIP)]",20 to 50
9,"FLSSEAANV [FLSSEAANV (SEQ ID NO: 30, TNFAIP2)]",20 to 50

# Continued, values first:
row,peptide exchange yield [%],Binder
1,20 to 50,"SLVEGEAVHLA [SLVEGEAVHLA (SEQ ID NO: 4, TFAP2E, TFAP2A, TFAP2B, TFAP2C)]"
2,20 to 50,"TIASSIEKA [TIASSIEKA (SEQ ID NO: 17, STPG2)]"
